The source of these data is patent US20210221879A1.

Test [1] deals with Bovine serum albumin containing AGEs derived from glyceraldehyde (Glycer-AGEs-BSA) (bovine) (UniProt P02769). Briefly: SPR, Biacore T200; Glycer-AGEs-BSA amine-coupled to a CM5 chip, antibody at 0 to 400 nM.
Test [2] concerns the target BSA modified with the novel structure derived from Glycer-AGEs (GAL13-BSA) (bovine) (UniProt P02769). As to the kind of experiment: SPR, Biacore T200; GAL13-BSA amine-coupled to a CM5 chip. On the technique in general: SPR reads the build-up and loss of mass on a sensor chip optically.
For test [3] the target is unchanged. Briefly: direct ELISA: POD-labeled antibody on immobilised GAL13-BSA (1 µg/mL), absorbance at 490 nm. For orientation: ELISA stands for enzyme-linked immunosorbent assay.
Test [4] has as its target BSA cross-linked with A-peak (A-peak-BSA) (bovine) (UniProt P02769). Briefly: cross-competition ELISA: unlabeled antibody varied (0.049 to 50 µg/mL), HRP-labeled SJ-5 as competitor on immobilised A-peak-BSA, absorbance 450-650 nm.
Test [5] has the same target. As to the kind of experiment: SPR, Biacore T200; A-peak-BSA amine-coupled to a CM5 chip (72 RU), PB-1 at 0.1953 to 50 nM, 1:1 binding model.

B1: novel monoclonal antibody SJ-5 (antibody, V domains shown)
VH: EVMLVESGGRLVKPGGSLKLSCAASGFTFSSYGMSWVRQTPEKRLEWVATISGGGSYTYYPDSVKGRFTISRDNVKNNLYLQMSSLRSEDTALYYCARRGAYGDYGWFAYWGQGTLVTVSA
VL: DIVLTQSPATLSVTPGDSVSLSCRASQSINNNLHWYQQKSHESPRLLIKCASQSISGIPSRFSGSGSGTDFTLSINSVETEDFGMYFCQQSNSWPLTFGAGTKLELK
In the case of B1, the figures for the dissociation constant (Kd) in test [1] and in test [2] were 57.4 nM and 87.5 nM, respectively. In addition, the EC50 (read off the curve) (usually the midpoint of the concentration-response curve) in test [3] stood at 0.3 µg/mL.

B2: novel monoclonal antibody PB-1 (antibody, V domains shown)
VH: EVRLQQSGPELVKPGTSVKISCKASGYSFTGYYMHWVKQSPVKSLEWIGRIIPYNGATSYNQNFKDKASLTVDKSSRTAYMDLHSLTSEDSAVYYCARSRYYGRAPYYFDYWGQGTTLTVSS
VL: DVVVTQTPLSLPVSLGDQASISCRSSQSIVHSNGNTYLEWYLQKPGQSPKLLIYKVSNRFSGVPDRISGSGSGTDFTLKISRVEAGDLGVYSCFQGSHVPFTFGSGTKLEIK
In test [4], B2 had an IC50 (read off the curve) of 2 µg/mL. In addition, the dissociation constant Kd – broadly, a measure of binding affinity in units of concentration – in test [5] was 4.15 nM.
